From the supplement of paper PMC9112550, “Optimization of the antimicrobial peptide Bac7 by deep mutational scanning” (BMC Biology, 2022) come the findings set out here.
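Further: peptides expressed intracellularly from a pBAD plasmid library in pooled LB shake-flask culture, induced with 0.3% L-arabinose, DNA abundance read by NGS, three biological replicates, DESeq2 with apeglm shrinkage.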

This data set has as its system Escherichia coli TOP10. Briefly: shrunken log2 fold change of peptide-encoding DNA abundance (4.5 h post-induction vs induction); higher = less antimicrobial activity (less host growth inhibition). The following applies: time post-induction: 4.5 h; library: site-saturation at positions 5, 18, 19, 20.
As for RRIRERPPRLPRPRPRPEEKPRP, the “shrunken log2 fold change” value is -0.0137. Take RRIRVRPPRLPRPRPRPGYHPRP: the “shrunken log2 fold change” value was -0.364. For RRIRERPPRLPRPRPRPYFSPRP the value was -0.247. To RRIRRRPPRLPRPRPRPFDDPRP belongs -0.236. For RRIRDRPPRLPRPRPRPGGAPRP the value was 0.806.

As to RRIRCRPPRLPRPRPRPCSVPRP, the “shrunken log2 fold change” value is -0.177. Take RRIRQRPPRLPRPRPRPMLEPRP: the “shrunken log2 fold change” value was 0.0533. For RRIRCRPPRLPRPRPRPWPHPRP the value was -0.0205; for RRIRDRPPRLPRPRPRPKFGPRP, 0.0019; for RRIRYRPPRLPRPRPRPQYPPRP, -0.733. For RRIRVRPPRLPRPRPRPYSFPRP, the “shrunken log2 fold change” value was -0.594. To RRIRCRPPRLPRPRPRPDGWPRP belongs 0.378. Take RRIRFRPPRLPRPRPRPYMCPRP: the “shrunken log2 fold change” value was -0.0146. Take RRIRWRPPRLPRPRPRPPCAPRP: the “shrunken log2 fold change” value is 0.563. For RRIRIRPPRLPRPRPRPIISPRP the value was -0.101; for RRIRHRPPRLPRPRPRPSLTPRP, 0.0616; for RRIRARPPRLPRPRPRPIDWPRP, 0.0607. As to RRIRARPPRLPRPRPRPSQNPRP, the “shrunken log2 fold change” value is -0.25.

As for RRIRWRPPRLPRPRPRPFLTPRP, the “shrunken log2 fold change” value came out at 2.56. Regarding RRIRCRPPRLPRPRPRPINIPRP, the “shrunken log2 fold change” value is -0.702. For RRIRSRPPRLPRPRPRPAVLPRP the value was -0.355; for RRIRNRPPRLPRPRPRPTTIPRP, -0.819; for RRIRERPPRLPRPRPRPPKCPRP, 0.0212. Regarding RRIRMRPPRLPRPRPRPISMPRP, the “shrunken log2 fold change” value came to 0.0246. For RRIRYRPPRLPRPRPRPGDLPRP the value was 0.0641; for RRIRPRPPRLPRPRPRPCQHPRP, -0.161; for RRIRQRPPRLPRPRPRPWTCPRP, 0.0112. For RRIRMRPPRLPRPRPRPYEYPRP the value was 0.0662; for RRIRNRPPRLPRPRPRPSSLPRP, -0.333; for RRIRRRPPRLPRPRPRPMCEPRP, 0.516. For the sequence RRIRQRPPRLPRPRPRPVWDPRP, the “shrunken log2 fold change” value was -0.104.

RRIRMRPPRLPRPRPRPQFVPRP: the “shrunken log2 fold change” value was -0.0894. To RRIRTRPPRLPRPRPRPRYSPRP belongs 0.0915; to RRIRMRPPRLPRPRPRPCEAPRP, 0.807. With RRIRNRPPRLPRPRPRPQSLPRP, the “shrunken log2 fold change” value was -0.139.

For the sequence RRIRWRPPRLPRPRPRPYATPRP, the “shrunken log2 fold change” value stood at 0.289.

With RRIRERPPRLPRPRPRPRMMPRP, the “shrunken log2 fold change” value is -0.011.

Take RRIRSRPPRLPRPRPRPYYMPRP: the “shrunken log2 fold change” value was -0.622.

For RRIRKRPPRLPRPRPRPSSQPRP, the “shrunken log2 fold change” value worked out at 0.0821. As to RRIRIRPPRLPRPRPRPGEYPRP, the “shrunken log2 fold change” value was -0.161. For RRIRCRPPRLPRPRPRPAPGPRP the value was 0.75. In the case of RRIRQRPPRLPRPRPRPDMMPRP, the “shrunken log2 fold change” value came out at 0.142. To RRIRLRPPRLPRPRPRPWSKPRP belongs -0.547; to RRIRTRPPRLPRPRPRPKMPPRP, 0.158. As for RRIRTRPPRLPRPRPRPCMTPRP, the “shrunken log2 fold change” value is -0.111. To RRIRRRPPRLPRPRPRPKKFPRP belongs -0.205. For RRIRPRPPRLPRPRPRPHRWPRP, the “shrunken log2 fold change” value is 0.25. In the case of RRIRKRPPRLPRPRPRPNSRPRP, the “shrunken log2 fold change” value worked out at 0.149.

Turning to RRIRCRPPRLPRPRPRPQDRPRP, the “shrunken log2 fold change” value is -0.175. For RRIRWRPPRLPRPRPRPWEPPRP, the “shrunken log2 fold change” value was -0.0178. For RRIRCRPPRLPRPRPRPGGDPRP, the “shrunken log2 fold change” value was determined as 0.142. For RRIRGRPPRLPRPRPRPALMPRP, the “shrunken log2 fold change” value was determined as 0.879. To RRIRTRPPRLPRPRPRPPIAPRP belongs 0.328; to RRIRARPPRLPRPRPRPVVSPRP, 0.188. To RRIRHRPPRLPRPRPRPFLEPRP belongs -0.0353; to RRIRERPPRLPRPRPRPDPQPRP, -0.102; to RRIRARPPRLPRPRPRPPRFPRP, 1.13. Consider RRIRGRPPRLPRPRPRPWAEPRP, for which the “shrunken log2 fold change” value came out at 2.19. To RRIRIRPPRLPRPRPRPEQAPRP belongs 0.1; to RRIRQRPPRLPRPRPRPVDCPRP, -0.013; to RRIRIRPPRLPRPRPRPINMPRP, -0.956.

Take RRIRKRPPRLPRPRPRPAITPRP: the “shrunken log2 fold change” value worked out at 0.613. For RRIRARPPRLPRPRPRPSESPRP the value was 0.0591.

As for RRIRGRPPRLPRPRPRPDCKPRP, the “shrunken log2 fold change” value came to 0.577.

As for RRIRCRPPRLPRPRPRPAWDPRP, the “shrunken log2 fold change” value was 0.235. Take RRIRNRPPRLPRPRPRPEWLPRP: the “shrunken log2 fold change” value was found to be 0.226.

Take RRIRDRPPRLPRPRPRPVFKPRP: the “shrunken log2 fold change” value was -0.0946. Take RRIRLRPPRLPRPRPRPWCAPRP: the “shrunken log2 fold change” value was -0.0114. As for RRIRHRPPRLPRPRPRPHWIPRP, the “shrunken log2 fold change” value is -0.415.

On to RRIRVRPPRLPRPRPRPMQLPRP, for which the “shrunken log2 fold change” value is -0.0252. To RRIRNRPPRLPRPRPRPMPPPRP belongs 0.208; to RRIRLRPPRLPRPRPRPELIPRP, -0.0413. For RRIRVRPPRLPRPRPRPKRHPRP the value was 0.0244; for RRIRGRPPRLPRPRPRPVDTPRP, 0.678. Turning to RRIRIRPPRLPRPRPRPTQHPRP, the “shrunken log2 fold change” value came to 0.0549.

Turning to RRIRYRPPRLPRPRPRPWDTPRP, the “shrunken log2 fold change” value is -0.639. To RRIRMRPPRLPRPRPRPEHVPRP belongs 0.0396; to RRIRIRPPRLPRPRPRPKEFPRP, -0.361; to RRIRFRPPRLPRPRPRPRQIPRP, 0.0287. For RRIRMRPPRLPRPRPRPFIHPRP, the “shrunken log2 fold change” value was -0.57. For RRIRTRPPRLPRPRPRPRNVPRP the value was -0.128. Turning to RRIRPRPPRLPRPRPRPRGPPRP, the “shrunken log2 fold change” value stood at 0.545. For RRIRLRPPRLPRPRPRPIWTPRP the value was 0.0256; for RRIRMRPPRLPRPRPRPIPVPRP, 0.0294; for RRIRIRPPRLPRPRPRPSSNPRP, -0.313. To RRIRNRPPRLPRPRPRPFNRPRP belongs -0.111; to RRIRERPPRLPRPRPRPVSVPRP, -0.022; to RRIRARPPRLPRPRPRPNANPRP, 0.49.

As to RRIRSRPPRLPRPRPRPECIPRP, the “shrunken log2 fold change” value stood at 0.00247. For RRIRLRPPRLPRPRPRPHCVPRP the value was -0.068. For RRIRMRPPRLPRPRPRPFMQPRP the value was -0.00899.

RRIRRRPPRLPRPRPRPGDVPRP: the “shrunken log2 fold change” value was 0.249. As to RRIRQRPPRLPRPRPRPMVLPRP, the “shrunken log2 fold change” value was 0.0309. As for RRIRTRPPRLPRPRPRPRYGPRP, the “shrunken log2 fold change” value was -0.284. For RRIRFRPPRLPRPRPRPPMKPRP the value was 0.0021; for RRIRMRPPRLPRPRPRPGIAPRP, 1.11; for RRIRWRPPRLPRPRPRPHSWPRP, 0.189. To RRIRFRPPRLPRPRPRPFQQPRP belongs -0.268; to RRIRTRPPRLPRPRPRPDNKPRP, -0.272. To RRIRGRPPRLPRPRPRPIPQPRP belongs 0.358; to RRIRHRPPRLPRPRPRPCVNPRP, -0.166; to RRIRTRPPRLPRPRPRPLYFPRP, -0.418. In the case of RRIRTRPPRLPRPRPRPDCCPRP, the “shrunken log2 fold change” value came to 0.135. RRIRVRPPRLPRPRPRPKCTPRP: the “shrunken log2 fold change” value is -0.0595. In the case of RRIRARPPRLPRPRPRPEASPRP, the “shrunken log2 fold change” value is 1.19. To RRIRKRPPRLPRPRPRPCLSPRP belongs -0.161; to RRIRCRPPRLPRPRPRPWGFPRP, 0.248. Consider RRIRVRPPRLPRPRPRPAASPRP, for which the “shrunken log2 fold change” value is 0.267. For RRIRFRPPRLPRPRPRPHLSPRP the value was -0.219; for RRIRERPPRLPRPRPRPPHPPRP, -0.0298. For RRIRFRPPRLPRPRPRPRGPPRP the value was 0.763. To RRIRIRPPRLPRPRPRPITVPRP belongs -0.426; to RRIRCRPPRLPRPRPRPGCFPRP, 0.0804; to RRIRCRPPRLPRPRPRPRDRPRP, 0.731. In the case of RRIRGRPPRLPRPRPRPIVNPRP, the “shrunken log2 fold change” value was found to be 0.187. Take RRIRERPPRLPRPRPRPIHMPRP: the “shrunken log2 fold change” value is -0.0835.

On to RRIRHRPPRLPRPRPRPIRRPRP, for which the “shrunken log2 fold change” value was 0.0591.

As to RRIRGRPPRLPRPRPRPRFYPRP, the “shrunken log2 fold change” value was found to be 0.189. To RRIRGRPPRLPRPRPRPEDAPRP belongs 1.65. As for RRIRWRPPRLPRPRPRPWIIPRP, the “shrunken log2 fold change” value is -0.267. For RRIRVRPPRLPRPRPRPVPGPRP the value was 0.0985; for RRIRSRPPRLPRPRPRPLKIPRP, -0.309; for RRIRCRPPRLPRPRPRPKHHPRP, -0.32. To RRIRLRPPRLPRPRPRPESQPRP belongs -0.000253; to RRIRHRPPRLPRPRPRPGFNPRP, -0.0117.
